From PMC3753316, “The Interaction between Factor H and Von Willebrand Factor” (PLoS ONE, 2013)
Blank lines part the entries; values can stand above or below the molecule they belong to.

Experiments:
[1] = target: recombinant His-tagged VWF-A1 domain (amino acids Q1238-D1471) (human); experiment: SPR; Biacore 3000, 25 C; VWF-A1 immobilised (1500 RU); fH 40 to 640 nM, 20 uL/min; fitted to two-state model; apparent KD
[2] = target: recombinant VWF-A2 as used in the ELISA and Biacore experiments (human) (UniProt P04275); experiment: SPR; Biacore 3000, 25 C; VWF-A2 (1000 RU) or VWF-A3 (800 RU) immobilised; fH 40 to 640 nM, 20 uL/min; for VWF-A2 responses at equilibrium fitted to a one-site binding isotherm
[3] = target: plasma purified human VWF (human); experiment: SPR; Biacore 3000, 25 C; VWF immobilised by amine coupling (2100 RU); fH 5 to 320 nM in HBS with 50 uM ZnCl2, 30 uL/min; global fit to two-state model; apparent KD
[4] = target: T1, plasma purified human factor H (human, UniProt P08603 19-1231); experiment: co-IP; plasma-purified fH (30 nM) incubated with His-tagged VWF-A1, -A2 (E. coli or HEK 293), -A3 or Myc-tagged VWF-BC (100 nM); precipitated with anti-fH antibody or IgG; blot anti-VWF; settings: both partners purified
T1 construct: complement factor H, human, purified from plasma (150 kD, 20 SCRs); also the endogenous protein in normal serum; also called fH; complement factor H; source: bought: Complement Technology Inc., plasma purified; endogenous, normal human serum
T1 sequence (P08603 19-1231): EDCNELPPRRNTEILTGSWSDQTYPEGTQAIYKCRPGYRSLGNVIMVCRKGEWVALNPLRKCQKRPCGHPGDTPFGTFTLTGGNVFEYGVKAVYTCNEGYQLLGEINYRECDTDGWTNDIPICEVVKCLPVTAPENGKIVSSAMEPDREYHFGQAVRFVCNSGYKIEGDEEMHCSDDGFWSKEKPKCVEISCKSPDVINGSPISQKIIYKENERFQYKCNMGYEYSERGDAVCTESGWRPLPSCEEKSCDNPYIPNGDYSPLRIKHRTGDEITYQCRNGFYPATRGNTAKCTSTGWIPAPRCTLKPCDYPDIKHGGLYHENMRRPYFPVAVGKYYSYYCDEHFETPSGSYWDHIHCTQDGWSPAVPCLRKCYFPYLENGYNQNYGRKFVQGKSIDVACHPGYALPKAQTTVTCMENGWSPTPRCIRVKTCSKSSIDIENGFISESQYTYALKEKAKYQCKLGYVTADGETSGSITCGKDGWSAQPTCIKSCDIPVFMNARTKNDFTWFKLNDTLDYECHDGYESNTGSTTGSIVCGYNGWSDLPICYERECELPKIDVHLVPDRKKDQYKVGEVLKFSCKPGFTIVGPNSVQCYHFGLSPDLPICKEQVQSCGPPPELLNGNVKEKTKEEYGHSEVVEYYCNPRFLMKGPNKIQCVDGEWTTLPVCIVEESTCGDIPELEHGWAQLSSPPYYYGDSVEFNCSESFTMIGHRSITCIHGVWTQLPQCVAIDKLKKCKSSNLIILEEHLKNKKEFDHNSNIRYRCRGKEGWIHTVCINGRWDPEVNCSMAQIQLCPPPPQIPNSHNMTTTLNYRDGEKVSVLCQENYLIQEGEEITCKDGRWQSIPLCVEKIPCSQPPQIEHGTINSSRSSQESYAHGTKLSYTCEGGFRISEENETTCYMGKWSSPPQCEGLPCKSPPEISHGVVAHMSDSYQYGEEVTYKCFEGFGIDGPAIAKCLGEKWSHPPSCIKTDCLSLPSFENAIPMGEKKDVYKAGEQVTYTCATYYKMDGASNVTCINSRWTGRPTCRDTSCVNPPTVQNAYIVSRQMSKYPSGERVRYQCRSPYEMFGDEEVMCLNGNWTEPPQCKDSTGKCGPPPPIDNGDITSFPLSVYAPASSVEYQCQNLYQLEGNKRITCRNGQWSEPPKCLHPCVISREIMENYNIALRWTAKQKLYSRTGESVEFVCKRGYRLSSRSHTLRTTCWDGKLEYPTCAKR

[5] = target: T2, recombinant full-length wild type human fH (F4 with SCRs 1-20, amino acids M1-R1231) (human, UniProt P08603 19-1231); experiment: pull-down; GST-VWF-A2 (100 nM) incubated with recombinant F4, F3, F2 or F1 (30 nM each); glutathione agarose beads, overnight 4 C; blot polyclonal or monoclonal (90X) anti-fH; settings: both partners purified
T2 construct: signal peptide in the construct; complement factor H, human, SCRs 1-20, amino acids M1-R1231, in pSecTag2B His tag vector; also called full-length recombinant fH; source: HEK 293, stably transfected, secreted into serum-free medium, purified (Ni-NTA)
T2 sequence (P08603 19-1231): as above

[6] = target: T3, truncated fH F3 with SCRs 1-15, amino acids M1-G928 (human, UniProt P08603 19-928); experiment: as above; settings: both partners purified
T3 construct: signal peptide in the construct; complement factor H, human, SCRs 1-15, amino acids M1-G928, in pSecTag2B His tag vector; source: HEK 293, stably transfected, secreted into serum-free medium, purified (Ni-NTA)
T3 sequence (P08603 19-928): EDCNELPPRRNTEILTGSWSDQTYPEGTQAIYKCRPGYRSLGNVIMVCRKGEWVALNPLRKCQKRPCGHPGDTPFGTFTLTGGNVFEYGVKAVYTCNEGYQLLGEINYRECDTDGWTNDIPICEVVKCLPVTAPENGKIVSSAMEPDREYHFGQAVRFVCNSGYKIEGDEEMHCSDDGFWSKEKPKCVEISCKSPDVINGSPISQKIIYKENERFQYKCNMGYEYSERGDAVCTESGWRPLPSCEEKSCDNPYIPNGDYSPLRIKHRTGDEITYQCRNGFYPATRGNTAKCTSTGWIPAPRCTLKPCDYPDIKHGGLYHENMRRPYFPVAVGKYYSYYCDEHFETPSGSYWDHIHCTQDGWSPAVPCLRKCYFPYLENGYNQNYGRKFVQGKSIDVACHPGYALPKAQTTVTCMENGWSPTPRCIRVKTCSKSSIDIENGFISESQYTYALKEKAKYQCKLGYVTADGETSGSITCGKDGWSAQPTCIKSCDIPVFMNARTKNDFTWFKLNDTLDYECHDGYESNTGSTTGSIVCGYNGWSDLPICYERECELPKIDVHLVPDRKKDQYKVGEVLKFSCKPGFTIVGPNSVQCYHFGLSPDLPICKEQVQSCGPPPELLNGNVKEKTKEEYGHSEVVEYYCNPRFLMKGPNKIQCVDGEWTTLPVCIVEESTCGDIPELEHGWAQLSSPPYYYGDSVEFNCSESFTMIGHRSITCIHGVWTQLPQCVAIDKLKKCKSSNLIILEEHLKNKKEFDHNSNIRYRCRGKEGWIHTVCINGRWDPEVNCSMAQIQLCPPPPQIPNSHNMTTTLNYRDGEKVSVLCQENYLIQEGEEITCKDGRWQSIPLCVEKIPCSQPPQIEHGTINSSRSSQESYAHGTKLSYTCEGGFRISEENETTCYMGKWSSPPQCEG

[7] = target: T4, truncated fH F2 with SCRs 1-10, amino acids M1-E625 (human, UniProt P08603 19-625); experiment: as above; settings: both partners purified
T4 construct: signal peptide in the construct; complement factor H, human, SCRs 1-10, amino acids M1-E625, in pSecTag2B His tag vector; source: HEK 293, stably transfected, secreted into serum-free medium, purified (Ni-NTA)
T4 sequence (P08603 19-625): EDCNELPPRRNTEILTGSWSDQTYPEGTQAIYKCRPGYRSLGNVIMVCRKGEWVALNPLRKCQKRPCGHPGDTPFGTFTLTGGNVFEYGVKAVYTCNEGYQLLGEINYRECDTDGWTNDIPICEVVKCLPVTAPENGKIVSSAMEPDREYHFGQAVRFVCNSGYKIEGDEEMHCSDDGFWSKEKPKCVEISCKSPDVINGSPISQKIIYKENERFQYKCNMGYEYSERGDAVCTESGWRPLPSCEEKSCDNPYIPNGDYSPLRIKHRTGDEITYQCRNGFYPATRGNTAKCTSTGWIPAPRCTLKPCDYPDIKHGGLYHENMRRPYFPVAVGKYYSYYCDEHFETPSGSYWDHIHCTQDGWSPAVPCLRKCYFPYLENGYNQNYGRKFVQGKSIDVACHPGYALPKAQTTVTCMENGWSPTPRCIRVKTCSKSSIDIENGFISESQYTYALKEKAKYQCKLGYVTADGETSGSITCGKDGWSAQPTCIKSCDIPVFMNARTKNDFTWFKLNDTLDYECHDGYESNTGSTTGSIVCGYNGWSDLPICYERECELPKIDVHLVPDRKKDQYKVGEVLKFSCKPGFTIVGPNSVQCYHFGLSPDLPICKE

B1: recombinant His-tagged VWF-A2 (amino acids G1481-R1668), purified from transfected E. coli (domain or fragment)
chain: GLLGVSTLGPKRNSMVLDVAFVLEGSDKIGEADFNRSKEFMEEVIQRMDVGQDSIHVTVLQYSYMVTVEYPFSEAQSKGDILQRVREIRYQGGNRTNTGLALRYLSDHSFLVSQGDREQAPNLVYMVTGNPASDEIKRLPGDIQVVPIGVGPNANVQELERIGWPNAPILIQDFETLPREAPDLVLQR
notes: von Willebrand factor A2 domain, amino acids G1481-R1668; source: E. coli, purified (Ni-NTA)
binding result [4]: binds

B2: recombinant His-tagged VWF-A2 (amino acids P1480-G1672), purified from transfected HEK 293 cells (domain or fragment)
chain: PGLLGVSTLGPKRNSMVLDVAFVLEGSDKIGEADFNRSKEFMEEVIQRMDVGQDSIHVTVLQYSYMVTVEYPFSEAQSKGDILQRVREIRYQGGNRTNTGLALRYLSDHSFLVSQGDREQAPNLVYMVTGNPASDEIKRLPGDIQVVPIGVGPNANVQELERIGWPNAPILIQDFETLPREAPDLVLQRCCSG
notes: von Willebrand factor A2 domain, amino acids P1480-G1672, in pSecTag2B His-tag vector; also called His-tagged A2; source: HEK 293, purified (Ni-NTA)
binding result [4]: binds

The remaining lines, values ahead:

Kd [1]: 161 nM | ka1 (binding step, two-state model) [1]: 53600 M⁻¹ s⁻¹ | ka2 (forward rate, conformational change step) [1]: 0.00797 s⁻¹ | kd1 (binding step, two-state model) [1]: 0.0358 s⁻¹ | kd2 (backward rate, conformational change step) [1]: 0.00254 s⁻¹ | Kd [2]: 147 nM | Kd [3]: 32.9 nM | ka1 (binding step, two-state model) [3]: 60000 M⁻¹ s⁻¹ | ka2 (forward rate, conformational change step) [3]: 0.007 s⁻¹ | kd1 (binding step, two-state model) [3]: 0.0158 s⁻¹ | kd2 (backward rate, conformational change step) [3]: 0.0009 s⁻¹
Molecule: plasma purified human factor H (from UniProt P08603 19-1231) (natural protein)

binding result [5]: binds | binding result [6]: binds | binding result [7]: binds
B3: GST-VWF-A2 fusion protein (amino acids P1480-G1672) (domain or fragment)
chain: PGLLGVSTLGPKRNSMVLDVAFVLEGSDKIGEADFNRSKEFMEEVIQRMDVGQDSIHVTVLQYSYMVTVEYPFSEAQSKGDILQRVREIRYQGGNRTNTGLALRYLSDHSFLVSQGDREQAPNLVYMVTGNPASDEIKRLPGDIQVVPIGVGPNANVQELERIGWPNAPILIQDFETLPREAPDLVLQRCCSG
notes: von Willebrand factor A2 domain, amino acids P1480-G1672, in pGEX-2T GST vector; also called GST-A2; recombinant VWF-A2; source: E. coli, purified (glutathione agarose beads)
